In assay [1] the target is T1, rat ASGPR (rat, UniProt P02706 61-284).
T1 construct: also called ASGPR antigen (rat)
T1 sequence: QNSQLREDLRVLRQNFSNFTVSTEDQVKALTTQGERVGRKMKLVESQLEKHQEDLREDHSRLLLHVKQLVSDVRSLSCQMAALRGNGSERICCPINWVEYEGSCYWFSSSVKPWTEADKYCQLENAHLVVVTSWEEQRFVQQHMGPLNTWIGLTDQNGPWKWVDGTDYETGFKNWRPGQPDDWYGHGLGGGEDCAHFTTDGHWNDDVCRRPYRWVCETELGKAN
The assay can be described thus: ELISA, 100 ng/well coated ASGPR antigen, antibodies at 10, 1 and 0.1 nM, anti-kappa detection. The protocol: (§1) The activity of anti-ASGPR within the Ins1-L1-Ab1L IgG (SEQ ID NOS: 79, 29) and Ins1-L1-Ab1H IgG (SEQ ID NOS: 78, 30) fusion proteins for human ASGPR was tested by ELISA assay. Briefly, 100 ng/well ASGPR antigen (human, rat and cyno monkey) was coated on 96-well plate in PBS at 4° C. overnight; the wells were blocked with 2% milk/PBST (0.5% Tween-20 in PBS) at room temperature for 1 hr; antibodies were added in concentrations of 10 nM, 1 nM and 0.1 nM in 2% milk/PBST at room temperature for 2 hr; the wells were washed with PBST 4-5 times; anti-light chain kappa (sigma A7164) in 2% milk/PBST was added and the plate incubated at room temperature for 1 hr; the wells were washed with PBST 4-5 times; and the reaction was developed with QuantaBlu fluorogenic peroxidase substrate (Life technologies, 15169), and quantified using a Spectramax fluorescence plate reader with excitation at 325 nm and emission at 420 nm. […] The figures illustrate that anti-ASGPR antibodies fused to insulin therapeutic peptides retain activity for their antigen ASGPR.
(In general: ELISA stands for enzyme-linked immunosorbent assay.)

Assay [2] concerns the target T2, human ASGPR (asialoglycoprotein receptor) (human, UniProt P07306 62-291).
T2 construct: also called human ASPGR; ASGPR antigen (human)
T2 sequence: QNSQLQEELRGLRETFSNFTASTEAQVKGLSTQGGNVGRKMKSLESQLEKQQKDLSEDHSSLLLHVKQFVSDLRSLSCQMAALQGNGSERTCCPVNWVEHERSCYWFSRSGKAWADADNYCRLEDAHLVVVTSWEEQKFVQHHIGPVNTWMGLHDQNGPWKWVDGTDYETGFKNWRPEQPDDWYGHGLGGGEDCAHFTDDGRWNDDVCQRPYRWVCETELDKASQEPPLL
The assay can be described thus: ELISA, coated ASGPR antigen (FIG. 3). The protocol:
as §1

The target in assay [3] is T3, cynomolgus monkey ASGPR (cynomolgus monkey, UniProt P07306 62-291 (human entry)).
T3 construct: also called cyno monkey ASGPR; cyno monkey ASPGR
T3 chain: T2 sequence with S3A, E7R, F16L, T91A, D221H
Nature of the assay: ELISA (FIG. 16).

Assay [4] has as its target T2, human ASGPR (asialoglycoprotein …). Nature of the assay: ELISA (FIG. 16).
The target of assay [5] is T1, rat ASGPR. The assay can be described thus: ELISA (FIG. 16).
Assay [6] addresses T2, human ASGPR (asialoglycoprotein …). Nature of the assay: ELISA (FIG. 37). The protocol:
(§2) The activity of anti-ASGPR within Ins1-L3-Ab4 Fab and Ins1-L3-Ab5 Fab fusion proteins for human, rat, and cyno monkey ASGPR was tested by ELISA assay as shown in FIGS. 37-39 as generally described in Example 3. 100 ng/well ASGPR antigen (human, rat, and cyno monkey) was coated on 96-well plate in PBS 4° C. over night, blocked with 2% milk/PBST (0.5% Tween-20 in PBS) at room temperature for 1 hr, and incubated with the fusion proteins at 4 nM, 20 nM, 100 nM, and 500 nM in 2% milk/PBST at room temperature for 2 hr. Wells were then washed with PBST for 4-5 times, incubated with mouse anti-insulin (MA5-12037, ThermoFisher Scientific) in 2% milk/PBST at room temperature for 2 hr, washed with PBST for 4-5 times, incubated with goat anti-mouse IgG-HRP (115-035-008, Jackson ImmunoResearch) for 30 min, and washed with PBST for 4-5 times The plates were developed with QuantaBlu fluorogenic peroxidase substrate (Life technologies, 15169), and quantified using Spectramax fluorescence plate reader with excitation at 325 nm and emission at 420 nm.
(§3) The figures illustrate that anti-ASGPR antibodies fused to insulin therapeutic peptides retain activity for their antigen ASGPR as determined by ELISA assay.

Assay [7] has as its target T3, cynomolgus monkey ASGPR. Nature of the assay: ELISA (FIG. 39). The procedure: as §2, §3
Assay [8] concerns the target T1, rat ASGPR. Nature of the assay: ELISA (FIG. 38). The procedure:
as §2, §3

Numbering of substitutions follows the chain as printed.

B1: Ins1-L1-Ab1L IgG (antibody)
light: FVNQHLCGSDLVEALYLVCGERGFFYTDPTGGGPRRGIVEQCCHSICSLYQLENYCNGGGGSETVLTQSPTTMATSPGEKITITCSASSTISSNYLHWYQQKPGFSPKLLIYRTSDLASGVPTRFSGSGSGTSYSLTIGTMEAEDVATYYCQQGSSIPFTFGSGTKLEINRADTAPTVSIFPPSSEQLTSGGASVVCFLNNFYPKDINVKWKIDGSERQNGVLNSWTDQDSKDSTYSMSSTLTLTKDEYERHNSYTCEATHKTSTSPIVKSFNRNEC
heavy: QVQLQQPGAELVKPGASVKLSCKASGYTFTNYWMHWVKQRPGRGLEWIGRIDLNSGGTNYNYNEKFKTKATLTVDKPSSTAYMQLSSLTSEDSAVYYCANYYGSSWFAYWGQGTTLTVSSAKTTAPSVYPLAPVCGDTTGSSVTLGCLVKGYFPEPVTLTWNSGSLSSGVHTFPAVLQSDLYTLSSSVTVTSSTWPSQSITCNVAHPASSTKVDKKIEPRGPTIKPCPPCKCPAPNLLGGPSVFIFPPKIKDVLMISLSPIVTCVVVDVSEDDPDVQISWFVNNVEVHTAQTQTHREDYNSTLRVVSALPIQHQDWMSGKEFKCKVNNKDLPAPIERTISKPKGSVRAPQVYVLPPPEEEMTKKQVTLTCMVTDFMPEDIYVEWTNNGKTELNYKNTEPVLDSDGSYFMYSKLRVEKKNWVERNSYSCSVVHEGLHNHHTTKSFSRTPGK
notes: also called Ins-L1-Ab1L IgG; Ins1-L1-AbL IgG
Regarding B1, the binding result in assay [1] and in assay [2] was “binds” in each case.

B2: Ins1-L1-Ab1H IgG (antibody)
heavy: FVNQHLCGSDLVEALYLVCGERGFFYTDPTGGGPRRGIVEQCCHSICSLYQLENYCNGGGGSQVQLQQPGAELVKPGASVKLSCKASGYTFTNYWMHWVKQRPGRGLEWIGRIDLNSGGTNYNYNEKFKTKATLTVDKPSSTAYMQLSSLTSEDSAVYYCANYYGSSWFAYWGQGTTLTVSSAKTTAPSVYPLAPVCGDTTGSSVTLGCLVKGYFPEPVTLTWNSGSLSSGVHTFPAVLQSDLYTLSSSVTVTSSTWPSQSITCNVAHPASSTKVDKKIEPRGPTIKPCPPCKCPAPNLLGGPSVFIFPPKIKDVLMISLSPIVTCVVVDVSEDDPDVQISWFVNNVEVHTAQTQTHREDYNSTLRVVSALPIQHQDWMSGKEFKCKVNNKDLPAPIERTISKPKGSVRAPQVYVLPPPEEEMTKKQVTLTCMVTDFMPEDIYVEWTNNGKTELNYKNTEPVLDSDGSYFMYSKLRVEKKNWVERNSYSCSVVHEGLHNHHTTKSFSRTPGK
light: ETVLTQSPTTMATSPGEKITITCSASSTISSNYLHWYQQKPGFSPKLLIYRTSDLASGVPTRFSGSGSGTSYSLTIGTMEAEDVATYYCQQGSSIPFTFGSGTKLEINRADTAPTVSIFPPSSEQLTSGGASVVCFLNNFYPKDINVKWKIDGSERQNGVLNSWTDQDSKDSTYSMSSTLTLTKDEYERHNSYTCEATHKTSTSPIVKSFNRNEC
notes: also called Ins-L1-Ab1H IgG
As for B2, the binding result in assay [1] and in assay [2] was “binds” each time.

B3: Ins1-L3-Ab4 Fab (Fab)
light: FVNQHLCGSDLVEALYLVCGERGFFYTDPTGGGPRRGIVEQCCHSICSLYQLENYCNGGGEAAAKEAAAKEAAAKAGGEIVLTQSPGTLSLSPGERATLSCSASSTISSNYLHWYQQKPGQAPRLLIYRTSDLASGIPDRFSGSGSGTDFTLTISRLEPEDFAVYYCQQGSSIPFTFGQGTKLEIKRTVAAPSVFIFPPSDEQLKSGTASVVCLLNNFYPREAKVQWKVDNALQSGNSQESVTEQDSKDSTYSLSSTLTLSKADYEKHKVYACEVTHQGLSSPVTKSFNRGEC
heavy: QVQLVQSGAEVKKPGASVKVSCKASGYTFTNYWMHWVRQAPGQGLEWMGRIDLNSGGTNYNYAQKFQGRVTMTRDTSISTAYMELSRLRSDDTAVYYCARYYGSSWFAYWGQGTLVTVSSASTKGPSVFPLAPSSKSTSGGTAALGCLVKDYFPEPVTVSWNSGALTSGVHTFPAVLQSSGLYSLSSVVTVPSSSLGTQTYICNVNHKPSNTKVDKKVEPKSCDKTHT
notes: also called Ins1-L3-Ab4L (Fab); Ins1-L3-Ab4L and Ab4H(Fab)
For the molecule B3, the binding result in assay [3], in assay [4] and in assay [5] was “binds” in each case.

B4: Ins1-L3-Ab4L IgG (antibody)
light: B3 light
heavy: QVQLVQSGAEVKKPGASVKVSCKASGYTFTNYWMHWVRQAPGQGLEWMGRIDLNSGGTNYNYAQKFQGRVTMTRDTSISTAYMELSRLRSDDTAVYYCARYYGSSWFAYWGQGTLVTVSSASTKGPSVFPLAPSSKSTSGGTAALGCLVKDYFPEPVTVSWNSGALTSGVHTFPAVLQSSGLYSLSSVVTVPSSSLGTQTYICNVNHKPSNTKVDKKVEPKSCDKTHTCPPCPAPPVAGPSVFLFPPKPKDTLMISRTPEVTCVVVDVSHEDPEVKFNWYVDGVEVHNAKTKPREEQYNSTYRVVSVLTVLHQDWLNGKEYKCKVSNKGLPSSIEKTISKAKGQPREPQVYTLPPSRDELTKNQVSLTCLVKGFYPSDIAVEWESNGQPENNYKTTPPVLDSDGSFFLYSKLTVDKSRWQQGNVFSCSVMHEALHNHYTQKSLSLSPGK
notes: Insulin immunoglobulin fusion protein: Ins1-L3-Ab4L light chain fusion paired with the full humanized heavy chain Ab4H; also called Ins1-L3-Ab4 IgG; Ins1-L3-Ab4L and Ab4H
As for B4, the binding result in assay [3], in assay [4] and in assay [5] was “binds” in each case.

B5: Ins1-L3-Ab5 Fab (Fab)
light: B3 light
heavy: B3 heavy with R50W
notes: As Ins1-L3-Ab4 Fab but with the Ab5H Fab heavy chain (Ab4H mutated at position 50); also called Ins1-L3-Ab5L (Fab)
Turning to B5, the binding result in assay [6], in assay [7] and in assay [8] was “binds” in each case.

These data come from patent US20200115458A1 (CALIFORNIA INSTITUTE FOR BIOMEDICAL RESEARCH, published 2020).
